Test results: patent publication US20210187118A1 (Daiichi Sankyo, published 2021)

Target: TA-MUC1 (tumor-associated MUC1) on human tumor cells (human, UniProt P15941 24-1255, aberrant tumor-associated O-glycosylation)
Assay: cell-based or functional assay

Chain of TA-MUC1 (tumor-associated MUC1) on human tumor cells (P15941 24-1255): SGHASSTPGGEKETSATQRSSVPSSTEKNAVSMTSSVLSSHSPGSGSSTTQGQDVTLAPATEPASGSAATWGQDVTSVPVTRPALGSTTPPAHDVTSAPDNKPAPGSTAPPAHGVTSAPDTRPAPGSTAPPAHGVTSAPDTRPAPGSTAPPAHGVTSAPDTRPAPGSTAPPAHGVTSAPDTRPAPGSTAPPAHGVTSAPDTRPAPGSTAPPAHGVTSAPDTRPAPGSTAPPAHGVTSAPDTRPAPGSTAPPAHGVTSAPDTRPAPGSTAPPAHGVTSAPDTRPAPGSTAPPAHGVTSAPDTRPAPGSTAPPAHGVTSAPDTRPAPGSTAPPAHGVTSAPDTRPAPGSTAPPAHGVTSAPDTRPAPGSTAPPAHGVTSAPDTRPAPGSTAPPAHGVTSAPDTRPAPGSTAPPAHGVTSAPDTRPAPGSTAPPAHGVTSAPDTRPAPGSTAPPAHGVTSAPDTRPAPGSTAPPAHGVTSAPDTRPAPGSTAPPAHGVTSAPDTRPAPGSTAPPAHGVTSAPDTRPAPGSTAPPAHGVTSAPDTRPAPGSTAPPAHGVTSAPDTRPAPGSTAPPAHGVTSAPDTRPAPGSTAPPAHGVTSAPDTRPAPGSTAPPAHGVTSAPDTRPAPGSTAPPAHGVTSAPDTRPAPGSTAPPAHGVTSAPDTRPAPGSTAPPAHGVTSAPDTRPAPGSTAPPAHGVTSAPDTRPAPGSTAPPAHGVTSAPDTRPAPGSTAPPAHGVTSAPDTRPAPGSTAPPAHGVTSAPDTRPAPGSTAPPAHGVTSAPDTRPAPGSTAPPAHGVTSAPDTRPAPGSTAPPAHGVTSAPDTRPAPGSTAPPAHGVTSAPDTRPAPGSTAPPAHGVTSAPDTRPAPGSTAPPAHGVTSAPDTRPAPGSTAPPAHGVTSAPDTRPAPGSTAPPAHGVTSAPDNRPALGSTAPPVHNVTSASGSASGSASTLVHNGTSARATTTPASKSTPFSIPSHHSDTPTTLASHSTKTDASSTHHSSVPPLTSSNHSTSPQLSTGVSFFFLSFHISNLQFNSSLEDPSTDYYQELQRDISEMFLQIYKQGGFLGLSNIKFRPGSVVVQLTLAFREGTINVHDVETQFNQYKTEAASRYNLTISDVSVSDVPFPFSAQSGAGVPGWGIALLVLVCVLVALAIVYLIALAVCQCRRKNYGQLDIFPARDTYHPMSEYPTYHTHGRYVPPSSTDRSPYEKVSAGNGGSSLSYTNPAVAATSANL

Binder | IC50 of cytotoxic activity (cell viability, ATP assay, 6 days) on TA-MUC1 positive MDA-MB-468 cells | cytotoxic activity on HPAC and NCI-H441 cells, fold against PankoMab-ADC | potency ratio of PM-N54Q-ADC to PankoMab-ADC, cytotoxic activity on HPAC cells | potency ratio of PM-N54Q-ADC to PankoMab-ADC, cytotoxic activity on NCI-H441 cells
PankoMab-ADC (antibody, human IgG1, kappa, V domains shown, drug-linker of Formula 2 bound by thioether bonds; drug-linker of Formula 2 (maleimide-GGFG linker with DXd/exatecan derivative) bound by thioether bonds; average approximately 8 drug molecules per antibody; Fab N-glycan on Asn54 (position 57)) VH: EVQLVESGGGLVQPGGSMRLSCVASGFPFSNYWMNWVRQAPGKGLEWVGEIRLKSNNYTTHYAESVKGRFTISRDDSKNSLYLQMNSLKTEDTAVYYCTRHYYFDYWGQGTLVTVSS VL: DIVMTQSPLSNPVTPGEPASISCRSSKSLLHSNGITYFFWYLQKPGQSPQLLIYQMSNLASGVPDRFSGSGSGTDFTLRISRVEAEDVGVYYCAQNLELPPTFGQGTKVEIKR | < 10 nM |  |  | 
PM-N54Q-ADC (antibody, human IgG1, kappa, V domains shown, drug-linker of Formula 2 bound by thioether bonds; drug-linker of Formula 2 (maleimide-GGFG linker with DXd/exatecan derivative) bound by thioether bonds; average approximately 8 drug molecules per antibody) VH: EVQLVESGGGLVQPGGSMRLSCVASGFPFSNYWMNWVRQAPGKGLEWVGEIRLKSNQYTTHYAESVKGRFTISRDDSKNSLYLQMNSLKTEDTAVYYCTRHYYFDYWGQGTLVTVSS VL: DIVMTQSPLSNPVTPGEPASISCRSSKSLLHSNGITYFFWYLQKPGQSPQLLIYQMSNLASGVPDRFSGSGSGTDFTLRISRVEAEDVGVYYCAQNLELPPTFGQGTKVEIKR |  | > 1.5 fold | 1.92 ratio | 1.66 ratio
